Measured values from doi:10.1101/2025.06.13.659497.

Molecular target: biotinylated recombinant bovine serum albumin with N-terminal Avi tag (rBSA-Bt) (Bos taurus)
Assay: SPR

surface density: 28 ng/cm^2
Substance: streptavidin (from UniProt P22629 25-183) (natural protein)
